{
  "source": "paper PMC4327562",
  "about": "“Emergence of terpene cyclization in Artemisia annua” (Nature Communications, 2015)",
  "tested_on": "CC(C)=CCC/C(C)=C/CC/C(C)=C/CO[P@@](=O)(O)OP(=O)(O)O",
  "test": "purified protein",
  "conditions": "5 mM MgCl2, pH 7.0, 30 °C, inorganic pyrophosphatase coupled",
  "data": [
    {"substance": "(E)-β-farnesene synthase (BFS), A. annua BFS (Artemisia annua)", "values": [
      {"measurement": "Km", "result": 16.19, "unit": "µM"},
      {"measurement": "kcat", "result": 0.17, "unit": "s⁻¹"},
      {"measurement": "kcat/Km", "result": 10500, "unit": "M⁻¹ s⁻¹"}
    ]}
  ]
}
